In the supplement of paper PMC10126150:
± gives the standard deviation of the averaged measurements.

System: ATP
Assay: switch fluorescence ratio, 500 uM ATP over buffer (Cy3 cluster intensity, sum of 5 cycles each) (fold (ratio)); higher = stronger signal-on switching upon ATP binding; sequences stand for … in TCGTCGGCAGCGTCAGATGTGTATAAGAGACAGTTTTTTTTTTTTTTTTTTTTTTTTT…TC
Details: aptamer strand: ATP DNA aptamer (quencher-CACCTGGGGGAGTATTGCGGAGGAAGG + anchor), 100 nM annealed; ATP concentration: 500 uM
Outline: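 Switching-strand clusters labelled with Cy3 on a modified Illumina MiSeq flow-cell were annealed to 100 nM quencher-labelled ATP aptamer, imaged in selection buffer, and re-imaged after 15 min with 500 uM ATP at 22 °C. This was done over five cycles with NaOH stripping and re-annealing in between. The fluorescence ratio is summed target-cycle over summed buffer-cycle Cy3 intensity per cluster, averaged per switch-domain sequence, excluding clusters outside 100-1000 RFU.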
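Also: ATP exposure 15 min at 22 °C before imaging.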

Sequence	switch fluorescence ratio
TTTAGTGAAC	1.025 ± 0.0089
TTTAGTGAAT	0.9966 ± 0.0051
TTTAGTGCCT	1.04 ± 0.012
TTTAGTGTGC	1.01 ± 0.03
TTTAGTTCCG	0.935 ± 0.025
TTTAGTTGAC	0.9956 ± 0.0092
TTTAGTTTG	1 ± 0.037
TTTAGTTTTC	0.991 ± 0.019
TTTATAACAC	1.05 ± 0.013
TTTATACCGA	1.067 ± 0.004
TTTATACCTA	1.03 ± 0.023
TTTATACCTT	1.07 ± 0.1
TTTATATAAT	0.984 ± 0.038
TTTATATGTT	1.03 ± 0.04
TTTATCAATT	0.991 ± 0.063
TTTATCAGTT	0.951 ± 0.035
TTTATCCGCC	1.77 ± 0.21
TTTATCCGCG	1.25 ± 0.25
TTTATCGAGC	1.02 ± 0.027
TTTATCGGTA	1.01 ± 0.03
TTTATCGTGG	0.9721 ± 0.002
TTTATCTGAA	0.9783 ± 0.0017
TTTATCTTGG	1.02 ± 0.038
TTTATGAAAG	0.97 ± 0.05
TTTATGAAGC	1.06 ± 0.076
TTTATGAGTG	0.997 ± 0.031

Sequence	switch fluorescence ratio
TTTATGCACC	1.07 ± 0.017
TTTATGCCGG	1.01 ± 0.029
TTTATGGGGG	0.999 ± 0.034
TTTATGTGGG	1.05 ± 0.12
TTTATTAGCA	0.968 ± 0.05
TTTATTATGT	0.994 ± 0.034
TTTATTCGGC	1.02 ± 0.065
TTTATTCGGT	1.01 ± 0.074
TTTATTCTAA	0.976 ± 0.02
TTTATTGAGC	0.989 ± 0.039
TTTATTGAGG	1.03 ± 0.011
TTTATTGGGA	1.07 ± 0.13
TTTATTGTAA	0.991 ± 0.031
TTTATTGTGC	1.03 ± 0.054
TTTATTTGCA	0.9545 ± 0.0068
TTTATTTGTA	0.99 ± 0.035
TTTATTTGTC	0.992 ± 0.053
TTTATTTTAT	1.02 ± 0.057
TTTATTTTCA	0.9924 ± 0.0046
TTTCAAAAAC	1.03 ± 0.037
TTTCAAACCC	0.995 ± 0.013
TTTCAAATTG	0.973 ± 0.028
TTTCAATGGA	0.974 ± 0.018
TTTCACTTGG	1.03 ± 0.027
TTTCAGAAAT	1.91 ± 1.6
TTTCAGAACT	1.0027 ± 0.00088

Sequence	switch fluorescence ratio
TTTCAGAGTT	0.993 ± 0.033
TTTCAGTCTA	1.03 ± 0.024
TTTCAGTTCC	1.08 ± 0.002
TTTCATACGT	1.02 ± 0.05
TTTCATAGC	1.1 ± 0.065
TTTCATATGG	0.994 ± 0.024
TTTCATCCTG	1.0331 ± 0.00038
TTTCATCTCT	1 ± 0.04
TTTCATGGGT	1 ± 0.018
TTTCATTATC	1.02 ± 0.016
TTTCATTGTA	1.01 ± 0.013
TTTCCACAT	0.9719 ± 0.0091
TTTCCAGCGT	1.03 ± 0.036
TTTCCAGGCA	1.03 ± 0.0051
TTTCCAGGG	1.17 ± 0.031
TTTCCAGGGA	1.034 ± 0.0029
TTTCCAGTAA	1.036 ± 0.0068
TTTCCCAGGA	1.13 ± 0.038
TTTCCCCTTT	1.08 ± 0.15
TTTCCCTGGT	1.12 ± 0.11
TTTCCGCGGA	0.97 ± 0.024
TTTCCGGAAT	1.661 ± 0.011
TTTCCGGTTT	1.6 ± 1.1
TTTCCGTTGG	1.12 ± 0.17
TTTCCTCCCT	1.84 ± 0.5
TTTCCTGAGG	0.991 ± 0.016

Sequence	switch fluorescence ratio
TTTCCTGGAT	1.04 ± 0.052
TTTCCTGGCG	1.024 ± 0.0089
TTTCCTTGCT	1.49 ± 0.59
TTTCGAAACG	1.12 ± 0.21
TTTCGAAATG	1.01 ± 0.027
TTTCGAATTG	0.975 ± 0.019
TTTCGAATTT	1.02 ± 0.04
TTTCGACGTT	0.99 ± 0.011
TTTCGAGGCT	0.976 ± 0.019
TTTCGATAGG	0.979 ± 0.034
TTTCGCATGA	1.223 ± 0.006
TTTCGCATTT	1.14 ± 0.013
TTTCGCCAGA	1.03 ± 0.0044
TTTCGCCCCT	1.1 ± 0.062
TTTCGCGATT	2.32 ± 1.7
TTTCGGAACC	1.2 ± 0.22
TTTCGGAAGG	0.988 ± 0.025
TTTCGGAGAG	0.989 ± 0.037
TTTCGGATCA	0.9334 ± 0.0044
TTTCGGATGG	1.03 ± 0.057
TTTCGGCATT	2.4 ± 1.9
TTTCGGGATT	1 ± 0.012
TTTCGGGCGG	0.999 ± 0.038
TTTCGGGGTA	1 ± 0.045
TTTCGGGGTT	1.04 ± 0.1
TTTCGGGTGC	1.05 ± 0.056

Sequence	switch fluorescence ratio
TTTCGGTAGT	0.995 ± 0.026
TTTCGTATTT	0.992 ± 0.046
TTTCGTCTGG	0.955 ± 0.062
TTTCGTGGGA	0.999 ± 0.04
TTTCGTTATT	1.34 ± 0.73
TTTCGTTTTA	0.996 ± 0.033
TTTCTAAGGA	0.978 ± 0.017
TTTCTAGAGA	1 ± 0.021
TTTCTAGCGG	1.01 ± 0.054
TTTCTAGGTG	2.06 ± 0.23
TTTCTATGCG	0.959 ± 0.025
TTTCTCAGTG	0.969 ± 0.011
TTTCTGACGG	1.35 ± 0.58
TTTCTGGTAA	1.08 ± 0.034
TTTCTGGTCG	0.964 ± 0.019
TTTCTGGTGC	1.16 ± 0.085
TTTCTGGTTG	1.022 ± 0.0078
TTTCTGTACG	1.1 ± 0.068
TTTCTGTGCG	1.001 ± 0.0072
TTTCTGTTCG	0.989 ± 0.024
TTTCTTCCAT	1.05 ± 0.1
TTTCTTGGGC	1.007 ± 0.0018
TTTCTTGGTA	1.02 ± 0.024
TTTCTTGGTT	0.991 ± 0.016
TTTCTTTGTT	1.04 ± 0.096
TTTGAAAATT	0.99 ± 0.06

Sequence	switch fluorescence ratio
TTTGAAAGGC	1.76 ± 1.1
TTTGAAAGGT	1.04 ± 0.072
TTTGAAAGTG	0.999 ± 0.015
TTTGAAATTT	1.006 ± 0.0096
TTTGAACGTT	1 ± 0.037
TTTGAAGGGT	1.0199 ± 0.00081
TTTGAAGGTG	1.45 ± 0.17
TTTGAATATA	0.985 ± 0.022
TTTGAATGAT	0.984 ± 0.015
TTTGAATGGA	1 ± 0.012
TTTGAATTAC	1.17 ± 0.062
TTTGAATTAG	1 ± 0.039
TTTGAATTGG	0.996 ± 0.017
TTTGAATTTA	1 ± 0.039
TTTGACAGCC	1.06 ± 0.042
TTTGACGGGG	1.04 ± 0.096
TTTGACTTAG	1.02 ± 0.043
TTTGACTTTA	1.003 ± 0.0029
TTTGAGAAAT	0.994 ± 0.029
TTTGAGATTT	0.9974 ± 0.009
TTTGAGGATA	1.07 ± 0.021
TTTGAGGGGA	1 ± 0.011
TTTGAGGGGC	0.995 ± 0.024
